Numbering of substitutions follows the chain as printed.
T1: human GIP receptor (human, UniProt P48546 22-466)
T1 sequence (looked up): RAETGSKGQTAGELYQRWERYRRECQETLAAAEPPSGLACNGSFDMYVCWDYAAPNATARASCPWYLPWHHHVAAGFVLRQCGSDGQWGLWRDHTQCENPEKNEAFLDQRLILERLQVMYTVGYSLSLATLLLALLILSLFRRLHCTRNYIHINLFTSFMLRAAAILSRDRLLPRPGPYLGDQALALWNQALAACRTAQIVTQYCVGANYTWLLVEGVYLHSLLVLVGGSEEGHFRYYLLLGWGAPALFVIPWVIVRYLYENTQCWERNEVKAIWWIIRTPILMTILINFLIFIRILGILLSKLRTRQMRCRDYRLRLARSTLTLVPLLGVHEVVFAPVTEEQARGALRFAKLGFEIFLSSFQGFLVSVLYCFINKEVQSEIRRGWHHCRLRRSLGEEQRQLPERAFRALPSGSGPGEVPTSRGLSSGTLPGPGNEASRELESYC

B1: Example 280 (peptide)
peptide: YXEGTXTSDXSIXLDXIAQXKFIXXLIKGGPSSGAPPPS
modifications: Y-Aib-EGT-αMeF(2F)-TSD-OMeY-SI-αMeL-LD-Orn-IAQ-Aib-K((2-[2-(2-Amino-ethoxy)-ethoxy]-acetyl)2-(γ-Glu)-(10-(4-carboxyphenoxy)decanoyl))FI-(D-Glu)-αMeY-LIK((2-[2-(2-Amino-ethoxy)-ethoxy]-acetyl)2-(γ-Glu)-(10-(4-carboxyphenoxy)decanoyl))GGPSSGAPPPS-NH2
B2: Example 281 (peptide)
peptide: B1 peptide with I17K, K28E
modifications: Y-Aib-EGT-αMeF(2F)-TSD-2Nal-SI-αMeL-LD-Orn-K((2-[2-(2-Amino-ethoxy)-ethoxy]-acetyl)2-(γ-Glu)-(10-(4-carboxyphenoxy)decanoyl))AQ-Aib-K((2-[2-(2-Amino-ethoxy)-ethoxy]-acetyl)2-(γ-Glu)-(10-(4-carboxyphenoxy)decanoyl))FI-(D-Glu)-αMeY-LIEGGPSSGAPPPS-NH2
B3: Example 282 (peptide)
peptide: B1 peptide with I17K, K21E
modifications: Y-Aib-EGT-αMeF(2F)-TSD-2Nal-SI-αMeL-LD-Orn-K((2-[2-(2-Amino-ethoxy)-ethoxy]-acetyl)2-(γ-Glu)-(10-(4-carboxyphenoxy)decanoyl))AQ-Aib-EFI-(D-Glu)-αMeY-LIK((2-[2-(2-Amino-ethoxy)-ethoxy]-acetyl)2-(γ-Glu)-(10-(4-carboxyphenoxy)decanoyl))GGPSSGAPPPS-NH2
B4: Example 283 (peptide)
peptide: B1 peptide with K21E, X24K
modifications: Y-Aib-EGT-αMeF(2F)-TSD-2Nal-SI-αMeL-LD-Orn-IAQ-Aib-EFIK((2-[2-(2-Amino-ethoxy)-ethoxy]-acetyl)2-(γ-Glu)-(10-(4-carboxyphenoxy)decanoyl))-αMeY-LIK((2-[2-(2-Amino-ethoxy)-ethoxy]-acetyl)2-(γ-Glu)-(10-(4-carboxyphenoxy)decanoyl))GGPSSGAPPPS-NH2
B5: Example 284 (peptide)
peptide: B1 peptide
modifications: Y-Aib-EGT-αMeF(2F)-TSD-2Nal-SI-αMeL-LD-Orn-IAQ-Aib-K((2-[2-(2-Amino-ethoxy)-ethoxy]-acetyl)2-(γ-Glu)-(10-(4-carboxyphenoxy)decanoyl))FI-(D-Glu)-αMeY-LIK((2-[2-(2-Amino-ethoxy)-ethoxy]-acetyl)2-(γ-Glu)-(10-(4-carboxyphenoxy)decanoyl))GGPSSGAPPPS-NH2
B6: Example 285 (peptide)
peptide: YXEGTXTSDXSIXLDXKAQXEFIXXLIEGGPSSGAPPPSK
modifications: Y-Aib-EGT-αMeF(2F)-TSD-4Pal-SI-αMeL-LD-Orn-K((2-[2-(2-Amino-ethoxy)-ethoxy]-acetyl)2-(γ-Glu)-(11-(4-carboxyphenoxy)undecanoyl))AQ-Aib-EFI-(D-Glu)-αMeY-LIEGGPSSGAPPPSK((2-[2-(2-Amino-ethoxy)-ethoxy]-acetyl)2-(γ-Glu)-(11-(4-carboxyphenoxy)undecanoyl))-NH2
B7: Example 286 (peptide)
peptide: B1 peptide with K21E, X24K
modifications: Y-Aib-EGT-αMeF(2F)-TSD-4Pal-SI-αMeL-LD-Orn-IAQ-Aib-EFIK(2-[2-(2-Amino-ethoxy)-ethoxy]-acetyl)2-(γ-Glu)-(11-(4-carboxyphenoxy)undecanoyl)-αMeY-LIK((2-[2-(2-Amino-ethoxy)-ethoxy]-acetyl)2-(γ-Glu)-(11-(4-carboxyphenoxy)undecanoyl)GGPSSGAPPPS-NH2)
B8: Example 287 (peptide)
peptide: B1 peptide
modifications: Y-Aib-EGT-αMeF(2F)-TSD-4Pal-SI-αMeL-LD-Orn-IAQ-Aib-K(2-[2-(2-Amino-ethoxy)-ethoxy]-acetyl)2-(γ-Glu)-(11-(4-carboxyphenoxy)undecanoyl)FI-(D-Glu)-αMeY-LIK((2-[2-(2-Amino-ethoxy)-ethoxy]-acetyl)2-(γ-Glu)-(11-(4-carboxyphenoxy)undecanoyl)GGPSSGAPPPS-NH2)
B9: Example 288 (peptide)
peptide: B6 peptide with K17I, E21K
modifications: Y-Aib-EGT-αMeF(2F)-TSD-4Pal-SI-αMeL-LD-Orn-IAQ-Aib-K(2-[2-(2-Amino-ethoxy)-ethoxy]-acetyl)2-(γ-Glu)-(11-(4-carboxyphenoxy)undecanoyl)FI-(D-Glu)-αMeY-LIEGGPSSGAPPPSK((2-[2-(2-Amino-ethoxy)-ethoxy]-acetyl)2-(γ-Glu)-(11-(4-carboxyphenoxy)undecanoyl)-NH2)
B10: Example 289 (peptide)
peptide: B1 peptide with I17K, K28E
modifications: Y-Aib-EGT-αMeF(2F)-TSD-OMeY-SI-αMeL-LD-Orn-K((2-[2-(2-Amino-ethoxy)-ethoxy]-acetyl)2-(γ-Glu)-CO-(CH2)10-CH3)AQ-Aib-K((2-[2-(2-Amino-ethoxy)-ethoxy]-acetyl)2-(γ-Glu)-CO-(CH2)10-CH3)FI-(D-Glu)-αMeY-LIEGGPSSGAPPPS-NH2
B11: Example 290 (peptide)
peptide: B1 peptide with I17K, K21E
modifications: Y-Aib-EGT-αMeF(2F)-TSD-OMeY-SI-αMeL-LD-Orn-K((2-[2-(2-Amino-ethoxy)-ethoxy]-acetyl)2-(γ-Glu)-CO-(CH2)10-CH3)AQ-Aib-EFI-(D-Glu)-αMeY-LIK((2-[2-(2-Amino-ethoxy)-ethoxy]-acetyl)2-(γ-Glu)-CO-(CH2)10-CH3)GGPSSGAPPPS-NH2
B12: Example 291 (peptide)
peptide: B6 peptide
modifications: Y-Aib-EGT-αMeF(2F)-TSD-OMeY-SI-αMeL-LD-Orn-K((2-[2-(2-Amino-ethoxy)-ethoxy]-acetyl)2-(γ-Glu)-CO-(CH2)10-CH3)AQ-Aib-EFI-(D-Glu)-αMeY-LIEGGPSSGAPPPSK((2-[2-(2-Amino-ethoxy)-ethoxy]-acetyl)2-(γ-Glu)-CO-(CH2)10-CH3)-NH2
B13: Example 303 (peptide)
peptide: B1 peptide with X10Y, S11X, K21E, X24K
modifications: Y-Aib-EGT-αMeF(2F)-TSDY-αMeS-I-αMeL-LD-Orn-IAQ-Aib-EFIK((2-[2-(2-Amino-ethoxy)-ethoxy]-acetyl)2-(γ-Glu)-CO-(CH2)12-CO2H)-αMeY-LIK((2-[2-(2-Amino-ethoxy)-ethoxy]-acetyl)2-(γ-Glu)-CO-(CH2)12-CO2H)GGPSSGAPPPS-NH2
B14: Example 306 (peptide)
peptide: B1 peptide with S11X, K21E, X24K
modifications: Y-Aib-EGT-αMeF(2F)-TSD-4Pal-αMeS-I-αMeL-LD-Orn-IAQ-Aib-EFIK((2-[2-(2-Amino-ethoxy)-ethoxy]-acetyl)2-(γ-Glu)-(10-(4-carboxyphenoxy)decanoyl))-αMeY-LIK((2-[2-(2-Amino-ethoxy)-ethoxy]-acetyl)2-(γ-Glu)-(10-(4-carboxyphenoxy)decanoyl))GGPSSGAPPPS-NH2
B15: Example 307 (peptide)
peptide: B1 peptide with X10Y, S11X, K21E, X24K
modifications: Y-Aib-EGT-αMeF(2F)-TSDY-αMeS-I-αMeL-LD-Orn-IAQ-Aib-EFIK((2-[2-(2-Amino-ethoxy)-ethoxy]-acetyl)2-(γ-Glu)-(10-(4-carboxyphenoxy)decanoyl))-αMeY-LIK((2-[2-(2-Amino-ethoxy)-ethoxy]-acetyl)2-(γ-Glu)-(10-(4-carboxyphenoxy)decanoyl))GGPSSGAPPPS-NH2

Key:
Test in all cases: cell-based or functional assay
human GLP-1 receptor = human GLP-1 receptor (human, UniProt P43220 24-463)
human GIP receptor = target: T1, human GIP receptor
human glucagon receptor = human glucagon receptor (human, UniProt P47871 26-477)

Binder	cAMP EC50 (1.0% HSA) (human GLP-1 receptor)	cAMP EC50 (1.0% HSA) (human GIP receptor)	cAMP Emax (1.0% HSA) (human GIP receptor)	cAMP EC50 (1.0% HSA) (human glucagon receptor)	cAMP Emax (1.0% HSA) (human GLP-1 receptor)
B1	49.9 nM	4.84 nM	88.5%	> 9950 nM	–
B2	22.4 nM	1.87 nM	–	> 9950 nM	–
B3	31.8 nM	1.44 nM	–	> 9950 nM	–
B4	49.5 nM	4.88 nM	–	> 9950 nM	–
B5	137 nM	8.38 nM	–	> 9950 nM	–
B6	136 nM	1.28 nM	–	> 9950 nM	–
B7	35 nM	2.18 nM	–	> 9950 nM	90.3%
B8	83.8 nM	3.76 nM	–	> 9950 nM	–
B9	17.1 nM	0.48 nM	85.2%	> 9950 nM	123%
B10	627 nM	3.11 nM	–	> 9950 nM	170%
B11	12.1 nM	0.878 nM	–	> 9950 nM	–
B12	7.43 nM	0.833 nM	–	> 9950 nM	–
B13	50.4 nM	2 nM	89.8%	> 9950 nM	–
B14	18.2 nM	1.12 nM	–	> 9950 nM	–
B15	33 nM	1.66 nM	81.8%	> 9950 nM	–
